Experimental data as given in patent publication US20100056392A1, “MICROSTRUCTURE AND MICRODOMAIN MICROARRAYS, METHODS OF MAKING SAME AND USES THEREOF” (priority 2005, published 2010).
{AminoPEG9} = amino group attached through a PEG9 spacer, used for covalent surface attachment

T1: transcription factor GAL80 (Saccharomyces cerevisiae, UniProt P04387)
T1 sequence (P04387 1-435): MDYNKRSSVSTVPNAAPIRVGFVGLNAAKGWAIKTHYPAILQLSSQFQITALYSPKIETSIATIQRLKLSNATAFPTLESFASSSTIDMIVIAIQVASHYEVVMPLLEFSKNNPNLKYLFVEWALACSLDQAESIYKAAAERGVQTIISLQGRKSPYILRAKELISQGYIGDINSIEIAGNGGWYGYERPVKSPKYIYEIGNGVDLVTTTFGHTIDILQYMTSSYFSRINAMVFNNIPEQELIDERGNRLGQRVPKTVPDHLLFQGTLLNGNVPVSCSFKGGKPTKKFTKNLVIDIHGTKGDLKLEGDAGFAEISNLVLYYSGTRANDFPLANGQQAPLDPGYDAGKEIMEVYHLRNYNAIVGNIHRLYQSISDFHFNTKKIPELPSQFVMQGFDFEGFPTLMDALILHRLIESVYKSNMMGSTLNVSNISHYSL

B1: Consensus DNA: covalently bound DNA containing three repeats of the consensus sequence for the transcription factor AP-1 (c-JUN), hybridized to Texas Red complement (nucleic acid)
DNA: CGCTTGATGAGTCAGCCGGAACGCTTGATGAGTCAGCCGGAACGCTTGATGAGTCAGCCGGAAGCTTCCGGTAAATTT
modifications: DNA, 5' {AminoPEG9}, backbone not given here; further chemistry not fully specified

Tests used:
[1] = molecular target: T1, transcription factor GAL80; details: template peptide of the array; cited from earlier work
[2] = molecular target: T2, transcription factor AP-1 (c-JUN) (Homo sapiens, UniProt P05412); assay: rhAP1 binding to DNA grafted polymer microstructures, in situ trypsin digest and MALDI-MS peptide mass fingerprinting; details: rhAP1 0.3 ug/ml 1:1 with buffer Z, 0.5 hrs at RT and 2 hrs at 4 C; identified by MALDI-MS, not in control
T2 construct: purchased Promega Corp (Madison, Wis.)
Experimental: This array was then washed with sterile water and a 1:1 mixture of rhAP1 protein 0.3 μg/ml and buffer Z (25 mM HEPES K+ pH 7.8, 12.5 mM MgCl2, 1 μM DTT, 20% glycerol, 0.1 Nonidet p40) and 2 μL was spotted onto all 5 microstructures. This was allowed to bind for 0.5 hrs at RT and 2 hrs at 4 C and then rinsed with sterile water at 4° C. The fluorescence was rechecked and the treatment spots were still fluorescent. 2 μL of a 1:100 dilution of 10 μg/mL trypsin in 25 mM ammonium carbonate and sterile water was spotted onto one feature and the array was left at 37° C. overnight.
A slightly subsaturated solution of α-cyano-4-hydroxycinnamic acid solution of 1:2 acetonitrile:water with 1% TFA was spotted, 2 μL per feature on to the array and left in hybridization chamber for 45 min. This was then dried and spotted with 1 μL of a saturated solution of α-cyano-4-hydroxycinnamic acid in 1:1 acetonitile:water with 0.1% TFA. […] Ions were only detected coming from the trypsin digest array element.
This array was then washed with sterile water and a 1:1 mixture of rhAP1 protein 0.3 ug/ml and buffer Z (25 mM HEPES K+ pH 7.8, 12.5 mM MgCl2, 1 uM DTT, 20% glycerol, 0.1 Nonidet p40) and 2 uL was spotted onto all 5 microstructures. […] The fluorescence was rechecked and the treatment spots were still fluorescent. […]

T2 sequence (P05412 whole entry): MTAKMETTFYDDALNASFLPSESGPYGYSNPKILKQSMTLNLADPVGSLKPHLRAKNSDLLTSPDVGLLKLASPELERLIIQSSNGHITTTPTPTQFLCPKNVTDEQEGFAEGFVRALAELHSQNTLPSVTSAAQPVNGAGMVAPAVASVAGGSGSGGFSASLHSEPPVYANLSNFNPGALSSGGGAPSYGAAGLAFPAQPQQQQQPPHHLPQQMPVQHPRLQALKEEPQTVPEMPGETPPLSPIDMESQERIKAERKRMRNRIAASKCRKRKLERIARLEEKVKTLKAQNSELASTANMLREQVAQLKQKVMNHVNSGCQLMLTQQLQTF

Row | Molecule | binding to transcription factor GAL80 [1] | binding of transcription factor AP-1 to immobilized consensus DNA [2]
1 | EGEWTEGKLSLR [template for 8,000 array variants substituted at positions 1, 3, 6] | known to bind | –
2 | B1 | – | bind the transcription factor AP-1
